Test: label from the status in PepcDB records

Sequence | protein production
MNKRVQAFLAKMQEKELDGIIINNLKNVYYLTGFWGSNGTVFISRDRQVLVTDSRYIIAAKQETSGFEIVADRDELAVIAGIVKDMGLTRIGFEDEISVSYYHRMQAAFAGLNLLPQTQFVEGLRMIK | failed
MGLTSHKYKYVSIYFLALLFLGIAVIESLHISHTRDLQEGLRQQAKEDLSIVRFQLEAEILGDIYTVKGLTTLLTLDPDLNIYQWEPLSAAVIRNSDHLRSLGIAPNDVVAFSYPLPQTNALLGLDYRTVPQQWQSIKKAREIKQTFVSGPVDLVQGGRALVIREPIFYDPPKDTRYWGVLSVVMDWDSLLSATSIYSFGEHFQVAIRGLDSRGSEGDVFFGEPRVFEHAFAQENVYFPYGSWRIAVAEKQDLLQQLSWYTRNAVRLLGYSVLLVLMAGFGVIMRLYQVAEERALHDPLTHLPNRRYFIYTIEHYFENAKRSHSEGNFALLNIDIDRFKSINDSHGHSAGDKVLVACAERIKSSLRVSDLVARIGGDEFLVLIPRIHREQDVLKVSDNILKRISETPIVYDDKLIHVRVSIGYALYDQSFATPDEMFKLADERMYTAKRRQNPLYRF | failed
MYIIFALLAFSALILVHELGHFIVAKLNGIYVEEFAIGMGPKLFGVKVGETEYNLRILPFGGFVKMLGEEDESDDSGSLNAKTPIQRILVMGAGAFMNYVLALIIFIGLAMSSGFAENKVASVVPNSPAQEIGIEQGDEFLKIDGNKIHTTDDFRMGLALAKGNPVELEIKRGNDVLTKTVQPILNESGMYQVGISYALVEKPTLLQGIKQGFNETRSLVSQSFIALKTIVTGEANLKTDVGGPVTIIKMSGQAAKAGANTLLWFMAFLSVQLAVFNLLPFPALDGGRIFIELIQMIIRKEIPAKYIEAVNTVGFMLLMGLMVLVTIKDIIFPIL | failed
MSELIKHSSNFLAAISPDNDCSITATNDFEAMMSWLNGYKKKPINTSRNYAREVKRYLIWLSCQGLTLAQVKIEDVYEYFNLLERPTTEWIIPDKKTDKIYPTQLIKYGGLSNRSINYTHTVLGLFYSFLQDAGYLTKNPINLVKKASATTESEQYRHLDLPAWQTLWTWILGYENRVITEDQPAKMIKKASRYRWVFALLYHSGIRCAEAANALMSDLVRKNNTWSLKVTGKGNKMRLVTVNSLLLKELIHYRRSLLLTDYPSSHDDTPLIVSIQKNRQGSMTTRTLSSLIKEVTELVCADCQDDQITRQIETMTTHWLRHTNATHRFMAGASLETTQDELGHADPRTTRIYAKTSNEKRKLDAERLADLFDGIG | failed
MRNDLFNREKSRQLSLTPRTEKIEVKHVGKTDPGTVFVMNKNISTPYSCAMHLSEWYCSKSILALVDGQPWDMYKPLTKSCEIKFLTFKDPDPREVNKAYWRSCAMMLGCVIERAFKDDYVVSLLRAPEVPVIAGAFCYDVTLDKRLDEWMPTKENLRSFTKDAHALIYRDLPFETLDVDARVALEIFQHNKYKVDFIEEKASQNPERIVKLHRIGDFIDVSEGPLIPRTSVCFQYEVSAVHNLNPSQPNLIRRFQGLSLPTHLRAQFTIWDKLVGRSRKMVTEDEVRQTENTESTQ | failed
MLGEFKHYKTRLAHGGIPQEVQNLLLEYGVEIFAEMLVEGLSRIKRCTDEGRVLMSLDLQVLINGLQHFVPTKVKPKLQIVETFIKAYYLPETEYVHWARAHPEYTKAQVVGLVNLVATMKGWKRKTRLEVIEKIESASM | failed
VGFAPELYCGLENCYDVLEVNREEFDKQKLAKAYRALARKHHPDRVKNKEEKLLAEERFRVIATAYETLKDDEAKTNYDYYLDHPDQRFYNYYQYYRLRAAPKVDL | not failed
MRDTGTSESNRSGDVVLGDDWVAPHSTVSKELRVKRARRSLFSLRGSPLTRKIITFNLIALIILVAGILYLNDARNGLVVQRAGALVGETQLVADVFEAQITGSAPVNLATGDGVDVDATLEDLSLRRGVEVFVFDTARNMVGQTKGTHVNPRLQALFEDKTGSTIITDALSGLWRAVSSIFANAPKSSAPALEQQIASLLPEALAGETRVETVLNTAGGTVIAAATPILQAGTPIGAVAMASPAGEIDALARRDRERVLQMFVVALLVSVGLSLVLASTIANPLADLAEAAELGRDRNSRRMNPGRIRIPDLSARPDEIGRLSRALRGMVSALYNRIEGNEQFAADVAHEIKNPLASLQSAVGTLRMVRREDQRDKLLSVIEHDVRRLDRLVSDISNASRLDAELVKEEEQSFNLLTMLDNLNQYLGEDARSKGIDYITDMPPDPIMIQGLEARLAQVFVNLITNAISFCEDGDAIRVWTRRRANRVLIVVEDTGPGIPDEALAKIFKRFYSQRPEEHFGNNSGLGLAISKQIVEAHGGVIWAENIRPTEADVTSDPLGARFVVGLPI | not failed
MSTMTATSGRAKRPQKPITLVGVDVYVITEDGIPKFDEYGPFKIEFISNRGTKVWPGYVSPDLMLVNWYRCRFTATRPVTDKDVDAFVGELGKKHLWSAVQKLWNYGDEAGFSKAY | failed
MHTFTASSSLGASADALFTWHSRPGAFERLTPPWAPVRLQSFEGIEAGDRAVLRIGPGPLAVRWVAEHYGVEPGRQFCDRQVQGPFSHWEHTHRFTPADDDTGGATLTDRIEYEPPGGALGRQAAPWLEAELRRQFAYRHRITRRDLSLHQQYNPDDRSLTIAVSGASGLVGSSLVPFLTTGGHTVKRLTRSGPTGADEILWDPRTDRVEADKLEGIDAVIHLAGENVFGPWTPAKKQRIYSSRADGTRLLAEALAGLDDPPEVLVSSSAVGYYGDHGADRITEESAPRDAGFLGEVCEAWEAAAEPAAAAGIRTVQMRTGIVLTPAGGALRLMLPAFWLGLGGRVGGRHQYFPWITLDDVIGGIYHALWTDALEGPVNLTAPRPVTMQAYTDTLADVLHRPAFLNVPSSVVRTVGGEMADEMLLTSARAVPQRLQDTGYDFGASALEDGLRHVLGRTAD | failed
MQGAGRLMQPRPDSAFVHDVRVTWGDCDPAKIAYTGHLPRFALEAIDAWWSEYHGPGGWYHLELDTNVGTPFVRLEMDFKSPVTPRHILKCHTWPTRLGTKSITFRVDGVQDGVTCFVGAFTCVFTIADQFKSQPAPDHLRALIEPHIPA | not failed
MIKGGGGKSSGYSADLMVCFPSRAHLSLPSKSISSPSSSFNRRQNAPHHRRSISKLSSSGGGVRQNRGGGREVVEEPTSPKVTCAGQIKVRSSKRDGGGKNWQSLMAEIEKIHRSKSESKFFGIKRDVMGFLTCLRDFDFRCFGAFPPVDIISDDEEEDEEEEEEDEEEDEDESSGTVFSKWLMVLHEKQNNEECVDGKENVFSDVETAVPPPNALLLMRCRSAPVKNWSEEKKEETEEGDNRVKQSGEEEEEEKDRVGNKKDLRSLMEEEKKMNLVVMNYDTNYYKLSNDIAKETWVVGGIQDPLFRSRSWKK | failed
MPNIGIIGAGIGGLQLGLQLRQHDIPVTIYTDKTANQIAGGRLLNSVAHHGPTLERERLLGVHFWPVEEYGYSCHHHYLGGDQPMSFRGDFTNWSSAIDYRLYLPKLSEAFQERGGNLEVRMLQADDIEPIAARHDLIVVAAGRGAFASMFPRRPDLSPYDTPQRALSVGIYRGIAESDPRGVTISTSPGHGDLLEIPMYTEDGFLTALLFENIPGGDLEILAKMSYDDDPQAFNRTVLDKLARHHPQTFERVDHTQFGLHRSIDLLQGALVPTVREDYAKLPGGKFALAIGDVHTVVDPLLGQGANSASHSAWVTGEAIVEDLGFDEMFCTRVARRRADVVLGAAQWTNLMLAPPAEHVLRLFEAMNANKAVADEFTHNFDHPDRQWQILATAERTNAFLARHGIESAAALAV | failed
KLPFDYQVNSTRHFMRELNRLGVTGAIDAGGGFQNYPDDYAVIQKLDEEGLLTIRLAYNLFTQKPKGEKDDFLNWTKTSKYKQGNDYFRHNGAGEMLVFSAADFEDFRVPRPDMPPEMEGELEEVVRILVQNKWPWRLHATYDETISRALDVFEKVNQDTPLDGLHWFFDHAETISDRSIDRIAALGGGIAVQHRMAYQGEYFVERYGFGAAEATPPVRRILDSGVKVSAGTDATRVASYNPWVSLSWLVTGRTVGGLRITPQRNCLDRETALRMWTENVTWFSNEEGN | failed
MLLLWLVVLVLGVAYLAHRRTPPAPALGISAAYLILMGVFSHAPGWLLLVFWLLWLAVALPLALPDLRRRVLSGPLFAWFQKVLPPMSDTEREAIEAGTVWWDGELFSGRPDWQKLLDYPKAQLTEEEQAFVDGPTEELCAMVSDWDIGQRMDLPEEAWAFIKQHGFFGLIIPKEYGGKGFSAFAHSQVVMKLATRSGDLASTVMVPNSLGPAELLLHYGTDEQRQRYLPSLAKGDDIPCFALTGPYAGSDAGGMTDVGIVCKGEWEGREVLGLRLTWEKRYITLGPVATLLGLAFKCHDPDHLLGDEEDLGITLALIPTDTPGVEIGRRHVPLGAAFMNGPNSGKDVFVPLEYIIGGQEMIGKGWMMLMNCLSVGRSISLPAVGTSAGKASSYVSGRYAQVREQFNVPIAAFEGIQEALARIGGNAWLMDSARILTANAVDLGEKPSVLSAILKYHLTERGRECIAHAMDIHGGKGIIMGPNNYLGRSWQGAPIFITVEGANILSRNLMIFGQGAIRCHPYVLKEMELAQREDKDQAAREFDALLVKHIGFAVGNAASSFLLSLSCGHLGNAPGDRISRPYFRALNRLAASFALLADFSMMLLGGELKRKERLSARLGDVLSYLYLGSAALKRYHDLGNPDYLHPLLRWAMEENLGKAEAALEDLLNNFPSRFFGCALKVLVLPFGRRHKGPGDELDAEIAEILGRPDDDPALQAILAGAFLPKDPQDPVGALAHAFDAVRESAALEKTLHKAIKEGRVQPQAGQNPIDAGAAAGVLSAEQAQALHQAEAARRKVIDVDDFAKEELQLADGRIR | failed
MSKPGTPKHGAGSSSAAAAPEKISKYNISTEKCGDLTVIVQGDLSQQEKRAVFITVHDLGCNHNSFQEFVSSPCMTEIKERSCFIHVDVPGHADNAEALADGFPFPSLQSLGEDLVTVLDYLHVKYVIGLGEGAGANVLARFGLAHPSRVLGLILINATGSAASVVQSFKNKFISWKSDEVAQSAESFLMYHKFGHQIVGENPDKEKIVAEYQKRLHRSLNSKNIGLYVKAFMNRKDLTLKGCKVDVILITGMLSPYASMVEKLHRDVEKERVTILKIERAGDVLADAPGKVAQSILLFCKGQGLLTSVVMPGVDRGRAFSTASSGSLEGANGSRRLSRGISMEDYDKPNIRRLSIMNSELPKKE | failed
MLYPNERKSSVHAIPYQDQLKQVQSAVDEFQKANGGLLPIQTKDMSTPLYQKYPIDFNRLAPRYIAEPPSTAFESGGDYQYVLVDVENDPTVKLIDLKMAEKIRDVKLRIQMYRQEHQYPPYKDVLSRDLFTLDEKKLGDGSSLTVTSPISGNSLPLMIDGDGEIYADYRTELASCLKKSKKTFKPGTEIQDMIWHETPFVPAFSVKYTVNDKQEPVFLENDMKKELEHHHHHH | not failed
FHSYTGELKIGASVASGQQVLRPALGKFMRQYPDLKVQLNLVNRRVDFIEEGFDVVIRIGQLNDSMLIAKKLGAINRKIFASPSYLAKQGNPDKVEQLTEHQLLIMNP | failed
MFTINTKSQLPIYEQIVQKIKEQVVKGILQEGEKILSIREFASRIGVNPNTVSKAYQELERQEVIVTVKGKGTFIADQTEKNSSPKKLAETKIKLKEIILDLVYLGINVEEIHKLSVEYSQDIIGGDKI | failed
MEIKPVSPEIVSDKLTKVILVFYKTISEIIYPLAILGYCISVILIITGSCFHSRTVMKMGIVNFCVITLVLISYFFMPSFIGILKSIETILR | failed
MTPLAEDFGAQGDAATRARWMALVEKTLKGQSFDDALTITTADGLTIQPLYTAEDGVAVARDLRARDTDRPWDLRMRAAHPDPIRAAKDVLTDLEGGAASVLLQIDPTGVNGVAIGSADDLGKALSGVLLDLAPVALDAGFLGPKAADWLGALAKAAPNAPLAFHLDPLTAFAQTGVSPGPIESHVFNAATVATRLSATYARASLFLATGRTAHEAGGSNVEELALMTAAALAYAKALVRSGLTIEEAFGRIALGVSLDGEYFTGVAKVRAAKALWARLTESCGVTVAPTIEARSSRRMLAKADAWTNLLRLTSAGFAGAVGGADAIVLDAFTDAIGLPTAFARRQARNTQLVLMEESHLGRVADPAGGAWYLDSLTDQLARAAWASFQAIEAAGGVIKALESGLVADAVAKSRTAQEAAYADKSRKILGVTVFPNADDKPPEVETPDSSAFAVQGPDVRLPGPDSHCPALTPVRFAAAFEGA | failed

Source: a protein production outcome set (Wang et al. 2014)
